Molecular target: the molecule itself
Experiment: AUC; sedimentation equilibrium; 0.2, 0.4 and 0.8 mg/ml, 7500 and 10,000 rpm; global fit with a self-association model; dimer to monomers

B1: RPTPγ tandem phosphatase domains (D1-D2), wild type (domain or fragment)
chain: not shown
notes: RPTPγ (PTPRG), human, tandem catalytic domains D1-D2; PDB 2NLK); Vector, tag state and construct limits are in the Supplemental Data; also called PTPRG; RPTPγ D1-D2; source: E. coli BL21(DE3), purified
- Kd: 3.5 ± 0.3 µM
- stoichiometry N: 2

Reference: PMC2638020, “Large-Scale Structural Analysis of the Classical Human Protein Tyrosine Phosphatome” (Cell, 2009)
